Measurements as given in patent US20240018260A1 (AMUNIX PHARMACEUTICALS, published 2024).

T1: human EpCAM on EpCAM positive human carcinoma cells (SW480, SK-OV-3) (human, UniProt P16422 24-314)
T1 sequence (looked up): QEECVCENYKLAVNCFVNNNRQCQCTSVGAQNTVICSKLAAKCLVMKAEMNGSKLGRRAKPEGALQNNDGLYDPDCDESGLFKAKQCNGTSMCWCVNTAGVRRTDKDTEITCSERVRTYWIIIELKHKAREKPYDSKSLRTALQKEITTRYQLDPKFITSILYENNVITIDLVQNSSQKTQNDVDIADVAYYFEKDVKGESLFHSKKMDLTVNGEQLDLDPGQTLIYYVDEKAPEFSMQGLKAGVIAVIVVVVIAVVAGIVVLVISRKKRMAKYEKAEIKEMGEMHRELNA

B1: AC1278 His(8)-aEpCAM-aCD3-BSRS1-XTEN_AE864, protease-untreated (intact) anti-EpCAM×anti-CD3 ProTIA (bispecific antibody)
chain: HHHHHHHHELVMTQSPSSLTVTAGEKVTMSCKSSQSLLNSGNQKNYLTWYQQKPGQPPKLLIYWASTRESGVPDRFTGSGSGTDFTLTISSVQAEDLAVYYCQNDYSYPLTFGAGTKLEIKGGGGSGGGGSGGGGSEVQLLEQSGAELVRPGTSVKISCKASGYAFTNYWLGWVKQRPGHGLEWIGDIFPGSGNIHYNEKFKGKATLTADKSSSTAYMQLSSLTFEDSAVYFCARLRNWDEPMDYWGQGTTVTVSSGGGGSDVQLVQSGAEVKKPGASVKVSCKASGYTFTRYTMHWVRQAPGQGLEWIGYINPSRGYTNYADSVKGRFTITTDKSTSTAYMELSSLRSEDTATYYCARYYDDHYCLDYWGQGTTVTVSSGEGTSTGSGGSGGSGGADDIVLTQSPATLSLSPGERATLSCRASQSVSYMNWYQQKPGKAPKRWIYDTSKVASGVPARFSGSGSGTDYSLTINSLEAEDAATYYCQQWSSNPLTFGGGTKVEIKGTAEAASASGLSGRSDNHSPLGLAGSPGSPAGSPTSTEEGTSESATPESGPGTSTEPSEGSAPGSPAGSPTSTEEGTSTEPSEGSAPGTSTEPSEGSAPGTSESATPESGPGSEPATSGSETPGSEPATSGSETPGSPAGSPTSTEEGTSESATPESGPGTSTEPSEGSAPGTSTEPSEGSAPGSPAGSPTSTEEGTSTEPSEGSAPGTSTEPSEGSAPGTSESATPESGPGTSTEPSEGSAPGTSESATPESGPGSEPATSGSETPGTSTEPSEGSAPGTSTEPSEGSAPGTSESATPESGPGTSESATPESGPGSPAGSPTSTEEGTSESATPESGPGSEPATSGSETPGTSESATPESGPGTSTEPSEGSAPGTSTEPSEGSAPGTSTEPSEGSAPGTSTEPSEGSAPGTSTEPSEGSAPGTSTEPSEGSAPGSPAGSPTSTEEGTSTEPSEGSAPGTSESATPESGPGSEPATSGSETPGTSESATPESGPGSEPATSGSETPGTSESATPESGPGTSTEPSEGSAPGTSESATPESGPGSPAGSPTSTEEGSPAGSPTSTEEGSPAGSPTSTEEGTSESATPESGPGTSTEPSEGSAPGTSESATPESGPGSEPATSGSETPGTSESATPESGPGSEPATSGSETPGTSESATPESGPGTSTEPSEGSAPGSPAGSPTSTEEGTSESATPESGPGSEPATSGSETPGTSESATPESGPGSPAGSPTSTEEGSPAGSPTSTEEGTSTEPSEGSAPGTSESATPESGPGTSESATPESGPGTSESATPESGPGSEPATSGSETPGSEPATSGSETPGSPAGSPTSTEEGTSTEPSEGSAPGTSTEPSEGSAPGSEPATSGSETPGTSESATPESGPGTSTEPSEGSAPG
B2: Protease-treated (MMP-9 cleaved) AC1278, His(8)-aEpCAM-aCD3 cleaved fragment (bispecific antibody)
chain: HHHHHHHHELVMTQSPSSLTVTAGEKVTMSCKSSQSLLNSGNQKNYLTWYQQKPGQPPKLLIYWASTRESGVPDRFTGSGSGTDFTLTISSVQAEDLAVYYCQNDYSYPLTFGAGTKLEIKGGGGSGGGGSGGGGSEVQLLEQSGAELVRPGTSVKISCKASGYAFTNYWLGWVKQRPGHGLEWIGDIFPGSGNIHYNEKFKGKATLTADKSSSTAYMQLSSLTFEDSAVYFCARLRNWDEPMDYWGQGTTVTVSSGGGGSDVQLVQSGAEVKKPGASVKVSCKASGYTFTRYTMHWVRQAPGQGLEWIGYINPSRGYTNYADSVKGRFTITTDKSTSTAYMELSSLRSEDTATYYCARYYDDHYCLDYWGQGTTVTVSSGEGTSTGSGGSGGSGGADDIVLTQSPATLSLSPGERATLSCRASQSVSYMNWYQQKPGKAPKRWIYDTSKVASGVPARFSGSGSGTDYSLTINSLEAEDAATYYCQQWSSNPLTFGGGTKVEIKGTAEAASASGLSGRSDNHSPLG
B3: AC1357, non-cleavable anti-EpCAM×anti-CD3 ProTIA without the release segment (bispecific antibody)
chain: HHHHHHHHELVMTQSPSSLTVTAGEKVTMSCKSSQSLLNSGNQKNYLTWYQQKPGQPPKLLIYWASTRESGVPDRFTGSGSGTDFTLTISSVQAEDLAVYYCQNDYSYPLTFGAGTKLEIKGGGGSGGGGSGGGGSEVQLLEQSGAELVRPGTSVKISCKASGYAFTNYWLGWVKQRPGHGLEWIGDIFPGSGNIHYNEKFKGKATLTADKSSSTAYMQLSSLTFEDSAVYFCARLRNWDEPMDYWGQGTTVTVSSGGGGSDVQLVQSGAEVKKPGASVKVSCKASGYTFTRYTMHWVRQAPGQGLEWIGYINPSRGYTNYADSVKGRFTITTDKSTSTAYMELSSLRSEDTATYYCARYYDDHYCLDYWGQGTTVTVSSGEGTSTGSGGSGGSGGADDIVLTQSPATLSLSPGERATLSCRASQSVSYMNWYQQKPGKAPKRWIYDTSKVASGVPARFSGSGSGTDYSLTINSLEAEDAATYYCQQWSSNPLTFGGGTKVEIKGSPGSPAGSPTSTEEGTSESATPESGPGTSTEPSEGSAPGSPAGSPTSTEEGTSTEPSEGSAPGTSTEPSEGSAPGTSESATPESGPGSEPATSGSETPGSEPATSGSETPGSPAGSPTSTEEGTSESATPESGPGTSTEPSEGSAPGTSTEPSEGSAPGSPAGSPTSTEEGTSTEPSEGSAPGTSTEPSEGSAPGTSESATPESGPGTSTEPSEGSAPGTSESATPESGPGSEPATSGSETPGTSTEPSEGSAPGTSTEPSEGSAPGTSESATPESGPGTSESATPESGPGSPAGSPTSTEEGTSESATPESGPGSEPATSGSETPGTSESATPESGPGTSTEPSEGSAPGTSTEPSEGSAPGTSTEPSEGSAPGTSTEPSEGSAPGTSTEPSEGSAPGTSTEPSEGSAPGSPAGSPTSTEEGTSTEPSEGSAPGTSESATPESGPGSEPATSGSETPGTSESATPESGPGSEPATSGSETPGTSESATPESGPGTSTEPSEGSAPGTSESATPESGPGSPAGSPTSTEEGSPAGSPTSTEEGSPAGSPTSTEEGTSESATPESGPGTSTEPSEGSAPGTSESATPESGPGSEPATSGSETPGTSESATPESGPGSEPATSGSETPGTSESATPESGPGTSTEPSEGSAPGSPAGSPTSTEEGTSESATPESGPGSEPATSGSETPGTSESATPESGPGSPAGSPTSTEEGSPAGSPTSTEEGTSTEPSEGSAPGTSESATPESGPGTSESATPESGPGTSESATPESGPGSEPATSGSETPGSEPATSGSETPGSPAGSPTSTEEGTSTEPSEGSAPGTSTEPSEGSAPGSEPATSGSETPGTSESATPESGPGTSTEPSEGSAPG

Molecular target: T1, human EpCAM on EpCAM positive human …
Experiment: cell-based or functional assay

Binder	EC50, LDH release cytotoxicity, PBMC:SW480 5:1
B1	288 pM
B2	8.9 pM
B3	3300 pM
